Measured values from paper PMC11995724.

Biological target: MiaA C273A (Shigella flexneri, UniProt P59197 1-316, C273A)
Assay: EMSA (2% agarose); 10 mM Mg2+; 100 uM 10-F05; binding only slightly decreased, largely unaffected
Conditions: protein: recombinant; tags: N-terminal His-tag (pET28a); label: none (GelRed stain); predicted two hairpin loops

GUUCAAUUGGUAGAGCACCGGUCUCCAAAACCGG (structured_RNA) [tRNATrp_34-base]
binding result: binds
